The source of these data is paper PMC4540320, “A Newly-Identified Polymorphism in Rhesus Macaque Complement Factor H Modulates Binding Affinity for Meningococcal FHbp” (PLoS ONE, 2015).

In assay [1] the target is rhesus macaque serum Factor H, sequence type HP/YS (heterozygous) (rhesus macaque (endogenous in serum)). The assay can be described thus: SPR; Biacore X100 Plus, CM5 chip with immobilised goat anti-human FH; FH (~600 RU) captured from a 1:50 serum dilution; FHbp 3.16 to 316 nM in solution, single-cycle kinetics, 1:1 binding model. In general terms: Surface plasmon resonance follows binding to a sensor surface in real time, without labels.

The target of assay [2] is rhesus macaque serum Factor H, sequence type HP/YP (heterozygous) (rhesus macaque (endogenous in serum)). The description is as above.
In assay [3] the target is rhesus macaque serum Factor H, sequence type YS/YP (heterozygous) (rhesus macaque (endogenous in serum)). Described as above.
The target in assay [4] is rhesus macaque serum Factor H, sequence type HP/HP (H352 with P360, homozygous) (rhesus macaque (endogenous in serum)). Described as above.
In assay [5] the target is T1, human complement Factor H (human (endogenous in serum), UniProt P08603 19-1231).
T1 construct: also called human FH; human serum FH; source: endogenous, human serum; also purified from the same subject
T1 sequence (P08603 19-1231): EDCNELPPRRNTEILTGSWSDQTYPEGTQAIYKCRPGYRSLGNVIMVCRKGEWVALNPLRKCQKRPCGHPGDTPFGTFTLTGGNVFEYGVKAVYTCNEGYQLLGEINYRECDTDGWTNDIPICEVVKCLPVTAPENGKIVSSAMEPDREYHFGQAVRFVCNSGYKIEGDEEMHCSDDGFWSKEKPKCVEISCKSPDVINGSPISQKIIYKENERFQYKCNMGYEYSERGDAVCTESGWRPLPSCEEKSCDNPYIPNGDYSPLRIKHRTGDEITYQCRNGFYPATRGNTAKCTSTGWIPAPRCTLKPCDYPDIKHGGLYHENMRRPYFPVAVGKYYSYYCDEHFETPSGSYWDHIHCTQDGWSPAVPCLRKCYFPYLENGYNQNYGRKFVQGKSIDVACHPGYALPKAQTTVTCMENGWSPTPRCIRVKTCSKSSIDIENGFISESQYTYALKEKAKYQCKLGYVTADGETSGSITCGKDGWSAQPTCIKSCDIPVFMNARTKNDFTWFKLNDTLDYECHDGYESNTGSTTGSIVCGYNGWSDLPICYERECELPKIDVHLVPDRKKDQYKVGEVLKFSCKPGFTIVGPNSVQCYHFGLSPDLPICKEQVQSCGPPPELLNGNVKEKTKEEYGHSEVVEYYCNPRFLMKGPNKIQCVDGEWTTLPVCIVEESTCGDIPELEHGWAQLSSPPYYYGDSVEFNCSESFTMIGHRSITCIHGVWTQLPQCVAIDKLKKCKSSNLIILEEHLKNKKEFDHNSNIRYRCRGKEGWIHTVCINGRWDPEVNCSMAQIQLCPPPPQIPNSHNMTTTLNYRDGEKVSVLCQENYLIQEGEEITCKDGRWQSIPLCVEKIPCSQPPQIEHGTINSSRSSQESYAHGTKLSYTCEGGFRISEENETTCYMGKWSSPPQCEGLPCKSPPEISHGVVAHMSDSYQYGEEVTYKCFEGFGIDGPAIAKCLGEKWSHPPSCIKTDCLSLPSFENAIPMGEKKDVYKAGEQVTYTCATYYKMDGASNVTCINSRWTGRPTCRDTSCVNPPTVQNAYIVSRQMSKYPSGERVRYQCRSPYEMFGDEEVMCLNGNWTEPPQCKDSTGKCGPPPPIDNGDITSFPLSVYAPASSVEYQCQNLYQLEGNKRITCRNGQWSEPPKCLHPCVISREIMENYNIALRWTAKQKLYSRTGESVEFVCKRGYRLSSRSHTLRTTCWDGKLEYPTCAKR
Described as above. To be noted: one partner purified.

In assay [6] the target is T1, human complement Factor H. The assay can be described thus: SPR; as the serum capture assay, but with human FH purified from the same subject captured on immobilised goat anti-human FH; FHbp in solution, single-cycle kinetics, 1:1 binding model. To be noted: both partners purified.

Consider “recombinant Factor H binding protein (FHbp) ID 1 (from UniProt Q9JXV4 20-274) (natural protein)”, for which the dissociation constant (Kd) (usually the equilibrium constant for the complex coming apart) in assay [1] is 99.5 nM; in assay [2], 18.2 nM; in assay [3], 10.4 nM; in assay [4], 100 nM. The kon (commonly the second-order rate constant of association) in assay [1] was 190000 M⁻¹ s⁻¹; in assay [2], 180000 M⁻¹ s⁻¹; in assay [3], 180000 M⁻¹ s⁻¹; in assay [4] it was 180000 M⁻¹ s⁻¹.

B1: recombinant Factor H binding protein (FHbp) ID 1 (natural protein)
chain: CSSGGGGVAADIGAGLADALTAPLDHKDKGLQSLTLDQSVRKNEKLKLAAQGAEKTYGNGDSLNTGKLKNDKVSRFDFIRQIEVDGQLITLESGEFQVYKQSHSALTAFQTEQIQDSEHSGKMVAKRQFRIGDIAGEHTSFDKLPEGGRATYRGTAFGSDDAGGKLTYTIDFAAKQGNGKIEHLKSPELNVDLAAADIKPDGKRHAVISGSVLYNQAEKGSYSLGIFGGKAQEVAGSAEVKTVNGIRHIGLAAKQ
notes: also called meningococcal FHbp; source: recombinant, purified as described previously [14] with a second ion exchange chromatography step (HiTrap SP HP)
Regarding B1, in assay [5], the Kd came out at 19.8 nM and the kon came to 190000 M⁻¹ s⁻¹. In assay [6], this molecule showed a Kd of 18.2 nM and a kon of 220000 M⁻¹ s⁻¹.
